Laboratory results from patent publication US20040071712A1.
Positions count from the first letter of the chain named.

Molecular target: human mpl receptor (c-Mpl, the TPO receptor) (human) (UniProt P40238)
Assay: cell-based or functional assay

B1: TMP-(G)n-TMP, n = 1 (peptide 2) (peptide)
chain: IEGPTLRQWLAARAGIEGPTLRQWLAARA
- increase in potency as compared to the monomer (cell proliferation assay): > 1000 fold

B2: TMP-(G)n-TMP, n = 8 (peptide 9) (peptide)
chain: IEGPTLRQWLAARAGGGGGGGGIEGPTLRQWLAARA
- increase in potency as compared to the monomer (cell proliferation assay): > 1000 fold

B3: TMP-(G)n-TMP, n = 4 (peptide 5) (peptide)
chain: IEGPTLRQWLAARAGGGGIEGPTLRQWLAARA
- increase in potency as compared to the monomer (cell proliferation assay): > 1000 fold

B4: TMP-GPNG-TMP (peptide 13) (peptide)
chain: B3 chain with G16P, G17N
- loss of activity against the equivalent GGGG-linked analog (cell proliferation assay): > 10 fold
- potency as compared to the monomer (cell proliferation assay): 100 fold

B5: TMP-(G)n-TMP, n = 0 (peptide 1) (peptide)
chain: IEGPTLRQWLAARAIEGPTLRQWLAARA
- increase in potency as compared to the monomer (cell proliferation assay): > 1000 fold

B6: TMP-(G)n-TMP, n = 5 (peptide 6) (peptide)
chain: IEGPTLRQWLAARAGGGGGIEGPTLRQWLAARA
- increase in potency as compared to the monomer (cell proliferation assay): > 1000 fold

B7: TMP-(G)n-TMP, n = 6 (peptide 7) (peptide)
chain: IEGPTLRQWLAARAGGGGGGIEGPTLRQWLAARA
- increase in potency as compared to the monomer (cell proliferation assay): > 1000 fold

B8: TMP-(G)n-TMP, n = 10 (peptide 11) (peptide)
chain: IEGPTLRQWLAARAGGGGGGGGGGIEGPTLRQWLAARA
- increase in potency as compared to the monomer (cell proliferation assay): > 1000 fold

B9: TMP-(G)n-TMP, n = 14 (peptide 12) (peptide)
chain: IEGPTLRQWLAARAGGGGGGGGGGGGGGIEGPTLRQWLAARA
- increase in potency as compared to the monomer (cell proliferation assay): > 1000 fold

B10: TMP-(G)n-TMP, n = 2 (peptide 3) (peptide)
chain: IEGPTLRQWLAARAGGIEGPTLRQWLAARA
- increase in potency as compared to the monomer (cell proliferation assay): > 1000 fold

B11: TMP-(G)n-TMP, n = 7 (peptide 8) (peptide)
chain: IEGPTLRQWLAARAGGGGGGGIEGPTLRQWLAARA
- increase in potency as compared to the monomer (cell proliferation assay): > 1000 fold

B12: TMP-(G)n-TMP, n = 3 (peptide 4) (peptide)
chain: IEGPTLRQWLAARAGGGIEGPTLRQWLAARA
- increase in potency as compared to the monomer (cell proliferation assay): > 1000 fold

B13: TMP-(G)n-TMP, n = 9 (peptide 10) (peptide)
chain: IEGPTLRQWLAARAGGGGGGGGGIEGPTLRQWLAARA
- increase in potency as compared to the monomer (cell proliferation assay): > 1000 fold
